From doi:10.1101/2023.02.09.527830

Molecular target: Lassa virus nucleoprotein NP (WT) (Lassa virus (AV strain), UniProt Q9DQX7)
Experiment: native MS

Binder	binding result
UAGGAAUCU (ssRNA) [9 nt RNA]	binds
ACACAAAGACCC (ssRNA) [12 nt RNA]	binds
